Assay results: patent publication US20220177587A1, “METHODS AND USES OF VARIANT CD80 FUSION PROTEINS AND RELATED CONSTRUCTS” (Alpine Immune Sciences, Inc., priority 2018, published 2022)

Tests used:
[1] = molecular target: human PD-L1 (huPD-L1), on stably transduced CHO cells (human) (UniProt Q9NZQ7); assay: flow cytometry on CHO cells stably expressing huPD-L1, 33.3 nM Fc fusion, PE anti-human Fc
[2] = molecular target: human PD-L1 (huPD-L1), on stably transduced CHO cells (human) (UniProt Q9NZQ7); assay: flow cytometry on CHO/huPD-L1 cells; MFI relative to WT CD80 (CD80 WT IgV-Fc = 1.0)
[3] = molecular target: CD28, endogenously expressed on Jurkat/IL2 reporter cells (human) (UniProt P10747); assay: flow cytometry on Jurkat/IL2 reporter cells (endogenous CD28), 33.3 nM Fc fusion, PE anti-human Fc
[4] = molecular target: human PD-L1 (huPD-L1), on stably transduced CHO cells (human) (UniProt Q9NZQ7); assay: flow cytometry; ratio of MFI on CHO/huPD-L1 cells to MFI on Jurkat (CD28) cells
[5] = molecular target: CD28, endogenously expressed on Jurkat/IL2 reporter cells (human) (UniProt P10747); assay: flow cytometry on Jurkat (CD28) cells; MFI relative to WT CD80 (CD80 WT IgV-Fc = 1.0)
[6] = molecular target: human CTLA-4 (huCTLA4), on stably transduced CHO cells (human) (UniProt P16410); assay: flow cytometry on CHO cells stably expressing huCTLA4, 33.3 nM Fc fusion, PE anti-human Fc
human CTLA-4 (huCTLA4), on stably transduced CHO cells (human), sequence (P16410 36-223): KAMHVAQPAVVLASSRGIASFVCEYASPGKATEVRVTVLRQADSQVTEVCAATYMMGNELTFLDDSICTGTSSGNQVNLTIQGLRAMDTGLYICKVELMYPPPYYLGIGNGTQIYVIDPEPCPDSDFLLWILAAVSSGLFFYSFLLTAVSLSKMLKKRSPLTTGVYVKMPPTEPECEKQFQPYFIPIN

[7] = molecular target: human CTLA-4 (huCTLA4), on stably transduced CHO cells (human) (UniProt P16410); assay: flow cytometry on CHO/huCTLA4 cells; MFI relative to WT CD80 (CD80 WT IgV-Fc = 1.0)
[8] = molecular target: CD28 (human) (UniProt P10747); assay: flow cytometry, Jurkat/IL2 reporter cells (CD28)
[9] = molecular target: human PD-L1 (human) (UniProt Q9NZQ7); assay: flow cytometry, CHO cells expressing huPD-L1
Target sequence in this assay (Q9NZQ7 19-290): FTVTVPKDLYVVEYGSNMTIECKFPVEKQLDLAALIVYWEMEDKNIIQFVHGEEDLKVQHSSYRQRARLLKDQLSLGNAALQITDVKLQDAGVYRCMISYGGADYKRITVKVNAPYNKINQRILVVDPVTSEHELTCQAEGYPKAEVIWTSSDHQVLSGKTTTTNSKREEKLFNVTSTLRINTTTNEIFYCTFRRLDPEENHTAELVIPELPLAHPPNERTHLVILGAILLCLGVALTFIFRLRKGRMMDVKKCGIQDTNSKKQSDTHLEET

[10] = molecular target: CD28 (human) (UniProt P10747); assay: flow cytometry, Jurkat cells (CD28); vs WT CD80 ECD-Fc (Abcam)
[11] = molecular target: CD28 (human) (UniProt P10747)
[12] = molecular target: human PD-L1 (human) (UniProt Q9NZQ7)
Target sequence in this assay (Q9NZQ7 19-290 limits assumed): as the sequence (Q9NZQ7 19-290) above

[13] = molecular target: human PD-L1 (human) (UniProt Q9NZQ7); assay: flow cytometry, CHO/huPD-L1 cells; vs WT CD80 ECD-Fc (Abcam)
Target sequence in this assay (Q9NZQ7 19-290): as above

[14] = molecular target: human PD-L1 (human) (UniProt Q9NZQ7); assay: flow cytometry; PD-L1 MFI over CD28 MFI of the same protein
Target sequence in this assay (Q9NZQ7 19-290): as above

[15] = molecular target: human CTLA-4 (human) (UniProt P16410); assay: flow cytometry, CHO/huCTLA-4 cells; vs WT CD80 ECD-Fc (Abcam)
human CTLA-4 (human), sequence (P16410 36-223): as the sequence (P16410 36-223) above

[16] = molecular target: human CTLA-4 (human) (UniProt P16410); assay: flow cytometry, CHO cells expressing huCTLA-4

human PD-L1 (huPD-L1), on stably transduced CHO cells (human), sequence (Q9NZQ7 19-290): as the sequence (Q9NZQ7 19-290) above

| Binder | MFI at 33.3 nM [1] [MFI] | Fold change to WT CD80 [2] [fold] | MFI at 33.3 nM [3] [MFI] | Ratio of PDL1:CD28 [4] | Fold change to WT CD80 [5] [fold] | MFI at 33.3 nM [6] [MFI] | Fold change to WT CD80 [7] [fold] | MFI at 33.3 nM [8] [MFI] | MFI at 33.3 nM [9] [MFI] | Fold change to WT CD80 [10] [fold] | IL-2 luciferase reporter, fold increase over WT CD80-IgV-Fc at 5.0 nM [11] [fold] | IL-2 luciferase reporter, fold increase over WT CD80-IgV-Fc at 5.0 nM [12] [fold] | Fold change to WT CD80 [13] [fold] | Ratio of PDL1:CD28 [14] | Fold change to WT CD80 [15] [fold] | MFI at 33.3 nM [16] [MFI] |
| --- | --- | --- | --- | --- | --- | --- | --- | --- | --- | --- | --- | --- | --- | --- | --- | --- |
| variant CD80 IgV-Fc E35D/D46E/M47I (Fc fusion) VIHVTKEVKEVATLSCGHNVSVEELAQTRIYWQKDKKMVLTMMSGEINIWPEYKNRTIFDITNNLSIVILALRPSDEGTYECVVLKYEKDAFKREHLAEVTLSVKAD | 3790 | 53.9 | 1000 | 4 | 15.2 | 21400 | 11.2 | – | – | – | – | – | – | – | – | – |
| variant CD80 IgV-Fc E35D/M47V/K89N (Fc fusion) VIHVTKEVKEVATLSCGHNVSVEELAQTRIYWQKDKKMVLTMMSGDVNIWPEYKNRTIFDITNNLSIVILALRPSDEGTYECVVLKYENDAFKREHLAEVTLSVKAD | – | – | – | – | – | – | – | 507 | 4340 | 0.7 | 5.8 | 5.8 | 33.9 | 8.6 | 1 | 39300 |
| variant CD80 IgV-Fc Q27L/E35D/M47V/I61V/L85M (Fc fusion) VIHVTKEVKEVATLSCGHNVSVEELALTRIYWQKDKKMVLTMMSGDVNIWPEYKNRTIFDVTNNLSIVILALRPSDEGTYECVVMKYEKDAFKREHLAEVTLSVKAD | 2700 | 38.5 | 230 | 12 | 3.5 | 27900 | 14.6 | – | – | – | – | – | – | – | – | – |
| variant CD80 IgV-Fc M47V/N48K/V68M (Fc fusion) VIHVTKEVKEVATLSCGHNVSVEELAQTRIYWQKEKKMVLTMMSGDVKIWPEYKNRTIFDITNNLSIMILALRPSDEGTYECVVLKYEKDAFKREHLAEVTLSVKAD | – | – | – | – | – | – | – | 641 | 14500 | 0.9 | 5.8 | 5.8 | 113 | 22.6 | 0.9 | 34600 |
| variant CD80 IgV-Fc E35D/D46E (Fc fusion) VIHVTKEVKEVATLSCGHNVSVEELAQTRIYWQKDKKMVLTMMSGEMNIWPEYKNRTIFDITNNLSIVILALRPSDEGTYECVVLKYEKDAFKREHLAEVTLSVKAD | 3760 | 53.4 | 779 | 5 | 11.8 | 27900 | 14.6 | – | – | – | – | – | – | – | – | – |
| variant CD80 IgV-Fc M47V/V68M (Fc fusion) VIHVTKEVKEVATLSCGHNVSVEELAQTRIYWQKEKKMVLTMMSGDVNIWPEYKNRTIFDITNNLSIMILALRPSDEGTYECVVLKYEKDAFKREHLAEVTLSVKAD | – | – | – | – | – | – | – | 328 | 4290 | 0.5 | 4.8 | 4.8 | 33.5 | 13.1 | 0.2 | 7280 |
| variant CD80 IgV-Fc E35D/K89N (Fc fusion) VIHVTKEVKEVATLSCGHNVSVEELAQTRIYWQKDKKMVLTMMSGDMNIWPEYKNRTIFDITNNLSIVILALRPSDEGTYECVVLKYENDAFKREHLAEVTLSVKAD | – | – | – | – | – | – | – | 236 | 757 | 0.3 | 2.5 | 2.5 | 5.9 | 3.2 | 0.5 | 21800 |
| variant CD80 IgV-Fc E35D/D46V/M47V/V68M/L85Q (Fc fusion) VIHVTKEVKEVATLSCGHNVSVEELAQTRIYWQKDKKMVLTMMSGVVNIWPEYKNRTIFDITNNLSIMILALRPSDEGTYECVVQKYEKDAFKREHLAEVTLSVKAD | – | – | – | – | – | – | – | 331 | 26300 | 0.5 | 8.5 | 8.5 | 205 | 79.4 | 0.9 | 36500 |
| variant CD80 IgV-Fc M47V (Fc fusion) VIHVTKEVKEVATLSCGHNVSVEELAQTRIYWQKEKKMVLTMMSGDVNIWPEYKNRTIFDITNNLSIVILALRPSDEGTYECVVLKYEKDAFKREHLAEVTLSVKAD | – | – | – | – | – | – | – | 68.7 | 2320 | 0.1 | 3.9 | 3.9 | 18.1 | 33.7 | 0.8 | 33300 |
| variant CD80 IgV-Fc Q27H/E35D/M47I (Fc fusion) VIHVTKEVKEVATLSCGHNVSVEELAHTRIYWQKDKKMVLTMMSGDINIWPEYKNRTIFDITNNLSIVILALRPSDEGTYECVVLKYEKDAFKREHLAEVTLSVKAD | 3420 | 48.7 | 756 | 5 | 11.5 | 27500 | 14.4 | – | – | – | – | – | – | – | – | – |
| variant CD80 IgV-Fc E35D/M47V/N48K/V68M/L85Q (Fc fusion) VIHVTKEVKEVATLSCGHNVSVEELAQTRIYWQKDKKMVLTMMSGDVKIWPEYKNRTIFDITNNLSIMILALRPSDEGTYECVVQKYEKDAFKREHLAEVTLSVKAD | – | – | – | – | – | – | – | 118 | 10500 | 0.2 | 7.9 | 7.9 | 81.9 | 88.8 | 0.6 | 26100 |
| variant CD80 IgV-Fc E35D/D46E/L85M (Fc fusion) VIHVTKEVKEVATLSCGHNVSVEELAQTRIYWQKDKKMVLTMMSGEMNIWPEYKNRTIFDITNNLSIVILALRPSDEGTYECVVMKYEKDAFKREHLAEVTLSVKAD | 2880 | 41 | 164 | 18 | 2.5 | 30300 | 15.8 | – | – | – | – | – | – | – | – | – |
| variant CD80 IgV-Fc E35D/D46V/M47V/N48K/V68M (Fc fusion) VIHVTKEVKEVATLSCGHNVSVEELAQTRIYWQKDKKMVLTMMSGVVKIWPEYKNRTIFDITNNLSIMILALRPSDEGTYECVVLKYEKDAFKREHLAEVTLSVKAD | – | – | – | – | – | – | – | 1080 | 25900 | 1.5 | 6.1 | 6.1 | 203 | 23.9 | 0.6 | 23900 |
